Source: patent US20150284723A1 (MEDICAL DIAGNOSTIC LABORATORIES, published 2015)

T1: FLAG-tagged PME-1 (wild-type protein methylesterase 1) (human, UniProt Q9Y570 1-386)
T1 construct: Expressed in stably transfected ECC-1 cells and pulled down with FLAG resin; also called FLAG-PME-1; not shown: FLAG tag
T1 sequence (looked up): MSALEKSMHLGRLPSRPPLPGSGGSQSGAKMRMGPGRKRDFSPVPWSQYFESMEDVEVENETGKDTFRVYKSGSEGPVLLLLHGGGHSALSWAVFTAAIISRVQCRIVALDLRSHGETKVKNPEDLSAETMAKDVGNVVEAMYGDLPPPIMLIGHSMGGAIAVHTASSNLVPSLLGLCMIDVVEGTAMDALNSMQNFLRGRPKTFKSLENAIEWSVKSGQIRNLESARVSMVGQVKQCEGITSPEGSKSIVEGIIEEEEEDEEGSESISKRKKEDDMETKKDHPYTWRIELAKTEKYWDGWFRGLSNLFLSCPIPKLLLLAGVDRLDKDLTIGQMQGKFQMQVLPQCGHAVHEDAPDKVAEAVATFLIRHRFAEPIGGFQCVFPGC

T2: FLAG-tagged PME-1 S156A (catalytically inactive mutant) (human, UniProt Q9Y570 1-386)
T2 construct: Expressed in stably transfected ECC-1 cells and pulled down with FLAG resin; also called FLAG-PME-1 S156A; FLAG PME-1 S156A; not shown: FLAG tag
T2 sequence (looked up): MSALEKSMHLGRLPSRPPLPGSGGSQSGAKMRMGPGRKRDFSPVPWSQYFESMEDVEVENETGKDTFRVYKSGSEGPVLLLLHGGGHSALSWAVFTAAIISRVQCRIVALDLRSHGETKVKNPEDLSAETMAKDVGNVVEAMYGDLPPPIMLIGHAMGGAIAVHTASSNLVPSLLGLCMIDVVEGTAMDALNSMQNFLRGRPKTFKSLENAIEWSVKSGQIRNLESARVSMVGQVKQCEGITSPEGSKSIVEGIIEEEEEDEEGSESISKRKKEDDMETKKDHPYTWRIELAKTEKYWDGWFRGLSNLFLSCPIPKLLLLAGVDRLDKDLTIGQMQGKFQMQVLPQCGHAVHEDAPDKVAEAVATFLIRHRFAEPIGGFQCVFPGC


Assays:
[1] = biological target: protein phosphatase 2A (PP2A); test: cell-based or functional assay
[2] = biological target: T1, FLAG-tagged PME-1 (wild-type protein …); test: FLAG co-immunoprecipitation from ECC-1 lysate, Western blot with anti-Ppp6c
Excerpt: (§1) Cells (post-transfection) were collected and cellular protein was extracted. Input depicts the relative expression of each protein in total cell lysate, whereas the elution depicts proteins that were immunoprecipitated with FLAG resin.
(§2) There are other protein phosphatases in the same family as PP2A in cells that share some similarity to PP2A. In this experiment, we examined if PME-1 binding to Ppp2ca is specific over other phosphatases. We chose to examine phosphatase 4 (PP4) and phosphatase 6 (PP6) since the C-terminal tail of the catalytic subunit of PP2A (i.e., Ppp2ca) is TPDYFL (amino acids 304-309 of SEQ ID NO: 12) (the substrate for PME-1 demethylation) is similar to that of protein phosphatase 4 (i.e., Ppp4c) (VADYFL) (amino acids 302-307 of SEQ ID NO: 13) and phosphatase 6 (i.e., Ppp6c), (TTPYFL) (amino acids 300-305 of SEQ ID NO: 14), respectively. Specifically, we examined if PME-1 may bind and demethylate PP4 or PP6.

[3] = biological target: T2, FLAG-tagged PME-1 S156A (catalytically …); test: as above
Excerpt: as §1, §2

Molecule | PP2A phosphatase activity (RL95-2 cells over-expressing PME-1) [1] [% decrease] | PP2A phosphatase activity (RL95-2 cells, shRNA against PPME1) (fold increase) [1] | binding result [2] | binding result [3]
PME-1 protein (endogenous, over-expressed or depleted in cells) (from UniProt Q9Y570 2-386) (enzyme) | 90 | 30 | – | –
Ppp6c, the catalytic subunit of PP6 (endogenous) (enzyme, Endogenous protein in the lysate of the human ECC-1 cell line; also called phosphatase 6) MAPLDLDKYVEIARLCKYLPENDLKRLCDYVCDLLLEESNVQPVSTPVTVCGDIHGQFYDLCELFRTGGQVPDTNYIFMGDFVDRGYYSLETFTYLLALKAKWPDRITLLRGNHESRQITQVYGFYDECQTKYGNANAWRYCTKVFDMLTVAALIDEQILCVHGGLSPDIKTLDQIRTIERNQEIPHKGAFCDLVWSDPEDVDTWAISPRGAGWLFGAKVTNEFVHINNLKLICRAHQLVHEGYKFMFDEKLVTVWSAPNYCYRCGNIASIMVFKDVNTREPKLFRAVPDSERVIPPRTTTPYFL | – | – | no binding | no binding
